Measured values taken from patent US20180099046A1 (JIANGSU HENGRUI MEDICINE, published 2018).

T1: human sclerostin with a Flag tag (h-SOST-Flag) (human, UniProt Q9BQB4 24-213, biotinylated (biotin labeling kit) in the ELISA)
T1 construct: also called SOST-FLAG protein; not shown: C-terminal Flag tag
T1 sequence (looked up): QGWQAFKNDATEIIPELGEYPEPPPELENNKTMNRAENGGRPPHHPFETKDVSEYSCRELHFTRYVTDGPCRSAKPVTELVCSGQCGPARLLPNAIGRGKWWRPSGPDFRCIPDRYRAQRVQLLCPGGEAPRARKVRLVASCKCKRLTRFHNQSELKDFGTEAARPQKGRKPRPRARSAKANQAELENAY

T2: human sclerostin protein (R&D SYSTEM, 1406-ST/CF) (human, UniProt Q9BQB4 24-213, biotinylated in the LRP-6 blocking assay; not labelled in Biacore)
T2 construct: Bought protein; also called human SOST; SOST (R&D, Catalog #1406-ST-025)
T2 sequence (looked up): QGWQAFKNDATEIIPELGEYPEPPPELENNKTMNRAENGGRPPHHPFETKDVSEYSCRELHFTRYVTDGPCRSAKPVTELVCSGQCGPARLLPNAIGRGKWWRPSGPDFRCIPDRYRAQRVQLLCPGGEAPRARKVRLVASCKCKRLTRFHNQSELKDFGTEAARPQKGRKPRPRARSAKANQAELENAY


Tests used:
[1] = target: T1, human sclerostin with a Flag tag …; assay: binding ELISA, biotinylated h-SOST-Flag on streptavidin plate
Experimental: (§1) ELISA experiments were used to detect the binding properties of sclerostin antibodies. Sclerostin with a Flag tag (h-SOST-FLAG, encoded by SEQID NO: 2) was biotinylated with a biotin labeling kit (Dojido Chem, LK03), and immobilized onto a 96-well EIA/RIA plate via binding to streptavidin coated on it. After the antibody was added, the strength of the signal was used to determine the binding activity between the antibody and human sclerostin.
Streptavidin (Sigma, S4762-5MG) was diluted to a concentration of 5 μg/ml with PBS buffer at pH 7.4 (Sigma, P4417-100TAB), and added to a 96-well EIA/RIA plate (Corning,CLS3590-100EA) at a volume of 50 μl/well. Then, the plate was incubated in an incubator at 37° C. for 2 hours. The liquid was discarded, the plates were blocked with 200 μl/well of blocking solution containing 5% skim milk (Guangming skim milk) in PBS, and incubated in an incubator at 37° C. for 2.5 hours or overnight (16-18 hours) at 4° C. After blocking, the blocking solution was discarded and the plate was washed 5 times with PBST buffer (pH 7.4 PBS containing 0.05% tween-20). Biotinylated SOST-FLAG protein (R&D SYSTEM, 1505-LR-025) was diluted with sample dilution buffer (pH 7.4 PBS containing 1% BSA) to 0.5 μg/ml and was added to each well at 50 μl/well, then the plate was incubated in the incubator at 37° C. for 2 hours. After incubation, the reaction solution in the plate was discarded, and the plate was washed with PBST 6 times, and then 50 μl/well of gradient dilution antibody with sample dilution buffer was added, and the plate was incubated in a incubator at 37° C. for 2 hours. The plate was washed 6 times with PBST after incubation, added with 100 μl/well of HRP-labeled goat anti-mouse (Jackson Immuno Research, Cat No. 115-035-003) or HRP-labeled goat anti-human secondary antibody (Jackson Immuno Research, Cat No. 109-035-003) diluted in sample dilution, and incubated at 37° C. for 1 hour. After washing the plates with PBST 6 times, 50 μl/well of TMB substrate (KPL, Cat No. 52-00-03) was added to each well, and incubated at room temperature for 10-15 min, and the reaction was stopped by adding 50 μl 1M H₂SO₄ to each well. The OD value at a wavelength of 450 nm was read on a NOVOStar microplate reader, and then EC₅₀ values of the binding between the sclerostin antibody of the present invention and human sclerostin were calculated.

[2] = target: T1, human sclerostin with a Flag tag …; assay: binding ELISA, biotinylated h-SOST-Flag on streptavidin plate (Test Example 1)
Experimental: as §1
Streptavidin (Sigma, S4762-5MG) was diluted to a concentration of 5 μg/ml with PBS buffer at pH 7.4 (Sigma, P4417-100TAB), and added to a 96-well EIA/RIA plate (Corning,CLS3590-100EA) at a volume of 50 μl/well. Then, the plate was incubated in an incubator at 37° C. for 2 hours. The liquid was discarded, the plates were blocked with 200 μl/well of blocking solution containing 5% skim milk (Guangming skim milk) in PBS, and incubated in an incubator at 37° C. for 2.5 hours or overnight (16-18 hours) at 4° C. After blocking, the blocking solution was discarded and the plate was washed 5 times with PBST buffer (pH 7.4 PBS containing 0.05% tween-20). […] The OD value at a wavelength of 450 nm was read on a NOVOStar microplate reader, and then EC₅₀ values of the binding between the sclerostin antibody of the present invention and human sclerostin were calculated.

[3] = target: T2, human sclerostin protein (R&D SYSTEM, …); assay: competition ELISA: antibody blocks binding of biotinylated human sclerostin to captured LRP-6-Fc (Test Example 2)
Experimental: (§2) In the method, goat anti-human Fc antibody was coated onto a 96-well EIA/RIA plate, and then LRP-6-Fc fusion protein was added for incubation. The biotinylated sclerostin protein and the anti-sclerostin antibody were co-incubated, and then added to the plate for incubation. After washing the plate, the binding amount between biotinylated sclerostin and LRP-6 was measured, and the IC₅₀ value of the blocking activity of the sclerostin antibody was calculated.
(§3) The goat anti-human Fc antibody was diluted to a concentration of 1 μg/ml with PBS buffer at pH 7.4 (Sigma, P4417-100TAB), and added to a 96-well EIA/RIA plate at a volume of 100 μl/well. Then, the plate was incubated at 37° C. for 2 hours. After discarding the liquid, the plates were blocked with 200 μl/well of blocking solution containing 5% skim milk (Guangming skim milk) in PBS, and incubated at 37° C. for 2.5 hours. After blocking, the blocking solution was discarded and the plate was washed 5 times with PBST buffer (pH 7.4 PBS containing 0.05% tween-20). LPR-6-Fc fusion protein (R&D SYSTEM, 1505-LRP-025) was diluted with sample dilution buffer (pH 7.4 PBS containing 1% BSA) to 1 μg/ml and 50 μl/well was added, then the plate was incubated at 37° C. for 2 hours. […]

[4] = target: T2, human sclerostin protein (R&D SYSTEM, …); assay: competition ELISA: antibody blocks binding of biotinylated human sclerostin to captured LRP-6-Fc
Experimental: as §2, §3

[5] = target: T3, cynomolgus monkey sclerostin with a Flag tag (cyno-SOST-Flag) (cynomolgus monkey); assay: competition ELISA: antibody blocks binding of monkey sclerostin to captured LRP-6-Fc
T3 construct: also called monkey SOST
Experimental: as §2, §3

[6] = target: T2, human sclerostin protein (R&D SYSTEM, …); assay: cell-based or functional assay
[7] = target: T2, human sclerostin protein (R&D SYSTEM, …); assay: SPR (Biacore)
[8] = target: T3, cynomolgus monkey sclerostin with a …; assay: SPR (Biacore)
[9] = target: T2, human sclerostin protein (R&D SYSTEM, …); assay: SPR (Biacore X100), antibody captured by anti-human antibody, SOST as analyte, 1:1 Langmuir fit
From the text: (§4) The anti-human capture antibody was covalently linked to the CMS biosensor chip (Cat. #BR-1000-12, GE) of a Biacore instrument (Biacore X100, GE) according to the method described in the instructions of anti-human trapping kit (GE, Cat.# BR-1008-39) for affinity capturing an amount of a test antibody. Then, a gradient of concentrations of SOST antigen (human SOST, R&D SYSTEM, Cat.#1406-ST-025/CF, R&D; monkey SOST, cyno-SOST-Flag, obtained by purification, encoded by SEQ ID NO: 4 of Example 1; murine SOST, m-SOST-Flag, obtained by purification, encoded by SEQ ID NO: 3 of Example 1) were flowed through the surface of the biochip. The reaction signal was detected in real-time using a Biacore instrument (GE, BiacoreX100) to obtain the association and dissociation curves. After each cycle of dissociation was finished in the experiment, the biochip was washed and regenerated with regeneration solution in the anti-human capture kit.
(§5) The amino-coupled kit used in the experiments was purchased from GE (Cat. #BR-1000-50, GE), and the buffer was HBS-EP+10× buffer solution (Cat. #BR-1006-69, GE), and the buffer was diluted to 1× (pH 7.4) with D.I. Water.
(§6) The data obtained was fitted by GE BlAevaluation version 4.1 software using a 1:1 Langmuir model, and the affinity value was generated.

[10] = target: T3, cynomolgus monkey sclerostin with a …; assay: as above
From the text: as §4, §5, §6

Row | EC50 [1] | EC50 [2] | IC50 [3] | IC50 [4] | IC50 [5] | Cell activity EC50 (nM): alkaline phosphatase (ALP) activity in C2C12 cells given wnt3a and SOST [6] | fold affinity against the positive molecule (Romosozumab) [7] | fold affinity against the positive molecule (Romosozumab) [8] | Kd [9] | Kd [10] | Binder
1 | 701 pM | 701 pM | 9910 pM | – | – | – | – | – | – | – | murine anti-human sclerostin monoclonal antibody Ab-1 (antibody, V domains shown, Mouse hybridoma antibody; also called parental antibody; murine antibody) VH: EVQLQQSGPELVKPGTSVKIPCQTSGYTFTDYNLDWLKQRPGESLEWIGDIDPNNGDILYNQKFRDKATLTVDTSSNTAYLELRSLTSEDTAVYYCARRWAYYFDYWGQGTTLTISS VL: NIVMTQTPKLLFVSAGDRITITCKASQSVSNDVAWYQQKPGQSPKLLIYYTSNRFTGVPDRFTGSGYGTDFTLTINTVQAEDLAVYFCQQDYSSPVTFGAGTKLELK
2 | 630 pM | – | – | 23500 pM | 110000 pM | 84.7 nM | ~10 times | > 10 times | 64 pM | 30 pM | humanized antibody Ab-5 (antibody, human IgG4 S228P, kappa, V domains shown, also called humanized anti-SOST antibody) VH: EVQLVQSGAEVKKPGASVKVSCKASGYTFTDYNLDWLRQAPGEGLEWIGDIDPNDGDILYNQKFRDRVTMTTDTSTSTAYMELRSLRSDDTAVYYCARRWAYYFDYWGQGTTVTVSS VL: DIVMTQSPSSLSASVGDRVTITCKASQSVSNDVAWYQQKPGKSPKLLIYYTSNRFTGVPDRFSGSGSGTDFTLTISSLQPEDFATYFCQQDYSSPVTFGGGTKVEIKR
3 | 400 pM | – | – | – | – | – | – | – | – | – | humanized antibody Ab-9 (antibody, human IgG4 S228P, kappa, V domains shown) VH: EVQLVQSGAEVKKPGASVKVSCKASGYTFTDYNLDWLRQAPGEGLEWIGDIDPNNGDILYNQKFRDRVTMTTDTSTSTAYMELRSLRSDDTAVYYCARRWAYYFDYWGQGTTVTVSS VL: NIVMTQSPSSLSASVGDRVTITCKASQSVSNDVAWYQQKPGKSPKLLIYYTSNRFTGVPDRFSGSGSGTDFTLTISSLQPEDFATYFCQQDYSSPVTFGGGTKVEIKR
4 | 540 pM | – | – | – | – | – | – | – | – | – | humanized antibody Ab-10 (antibody, human IgG1, kappa, V domains shown) VH: EVQLVQSGAEVKKPGASVKVSCKASGYTFTDYNLDWVRQAPGQGLEWMGDIDPNNGDILYNQKFRDRVTMTTDTSTSTAYMELRSLRSDDTAVYYCARRWAYYFDYWGQGTTVTVSS VL: DIQMTQSPSSLSASVGDRVTITCKASQSVSNDVAWYQQKPGKAPKLLIYYTSNRFTGVPSRFSGSGSGTDFTLTISSLQPEDFATYYCQQDYSSPVTFGGGTKVEIKR
5 | – | – | – | 27900 pM | 46800 pM | 71.6 nM | – | – | 670 pM | 520 pM | Romosozumab (antibody, V domains shown) VH: EVQLVQSGAEVKKPGASVKVSCKASGYTFTDYNMHWVRQAPGQGLEWMGEINPNSGGAGYNQKFKGRVTMTTDTSTSTAYMELRSLRSDDTAVYYCARLGYDDIYDDWYFDVWGQGTTVTVSS VL: DIQMTQSPSSLSASVGDRVTITCRASQDISNYLNWYQQKPGKAPKLLIYYTSRLLSGVPSRFSGSGSGTDFTLTISSLQPEDFATYYCQQGDTLPYTFGGGTKVEIK
